Holding throughout (assay): NMR titration
For assay [1], the target named is cyclophilin A (UniProt P62937 1-165).
For assay [2], the target named is CypA^V6TV29L (UniProt P62937 1-165, V6T | V29L).
Assay [3] deals with CypA^V29A (UniProt P62937 1-165, V29A).
Assay [4] has as its target CypA^V29T (UniProt P62937 1-165, V29T).
Assay [5] deals with CypA^V29L (UniProt P62937 1-165, V29L).
For assay [6], the target named is CypA^V6A (UniProt P62937 1-165, V6A).
The target in assay [7] is CypA^V6I (UniProt P62937 1-165, V6I).
Assay [8] deals with CypA^V6S (UniProt P62937 1-165, V6S).
The target in assay [9] is CypA^V6T (UniProt P62937 1-165, V6T).
In assay [10] the target is CypA^V6L (UniProt P62937 1-165, V6L).
Chain of CypA^V6L (P62937 whole entry V6L): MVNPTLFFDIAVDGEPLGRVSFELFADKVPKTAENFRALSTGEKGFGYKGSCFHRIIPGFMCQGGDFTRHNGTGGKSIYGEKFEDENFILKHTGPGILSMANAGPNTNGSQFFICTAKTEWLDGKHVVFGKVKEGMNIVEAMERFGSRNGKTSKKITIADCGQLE

Chain of CypA^V29L (P62937 whole entry V29L): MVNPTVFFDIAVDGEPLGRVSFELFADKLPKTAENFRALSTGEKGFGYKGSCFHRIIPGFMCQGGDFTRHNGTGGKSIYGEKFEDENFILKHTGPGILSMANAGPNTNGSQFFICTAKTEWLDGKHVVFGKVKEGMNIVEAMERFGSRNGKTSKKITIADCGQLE
Chain of CypA^V6A (P62937 whole entry V6A): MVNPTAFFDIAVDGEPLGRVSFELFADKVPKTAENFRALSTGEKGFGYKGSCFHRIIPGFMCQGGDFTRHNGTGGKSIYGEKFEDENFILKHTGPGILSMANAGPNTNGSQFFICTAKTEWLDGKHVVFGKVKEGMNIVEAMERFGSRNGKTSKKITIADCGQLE
Chain of CypA^V6S (P62937 whole entry V6S): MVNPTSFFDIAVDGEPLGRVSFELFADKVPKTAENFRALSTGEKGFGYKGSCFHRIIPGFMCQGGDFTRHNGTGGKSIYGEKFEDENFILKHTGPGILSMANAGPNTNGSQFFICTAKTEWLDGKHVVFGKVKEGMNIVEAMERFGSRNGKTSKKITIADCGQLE
Chain of CypA^V6T (P62937 whole entry V6T): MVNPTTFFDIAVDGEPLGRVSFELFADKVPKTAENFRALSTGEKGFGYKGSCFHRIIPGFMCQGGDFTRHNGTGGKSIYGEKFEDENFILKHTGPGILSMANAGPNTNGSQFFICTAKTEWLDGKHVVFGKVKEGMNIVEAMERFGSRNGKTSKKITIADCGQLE
Chain of CypA^V6TV29L (P62937 whole entry V6T/V29L): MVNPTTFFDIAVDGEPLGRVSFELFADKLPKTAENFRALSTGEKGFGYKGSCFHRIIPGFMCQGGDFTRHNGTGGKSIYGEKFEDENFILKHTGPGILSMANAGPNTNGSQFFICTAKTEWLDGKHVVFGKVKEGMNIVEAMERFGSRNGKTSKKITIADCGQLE
Chain of cyclophilin A (P62937 whole entry): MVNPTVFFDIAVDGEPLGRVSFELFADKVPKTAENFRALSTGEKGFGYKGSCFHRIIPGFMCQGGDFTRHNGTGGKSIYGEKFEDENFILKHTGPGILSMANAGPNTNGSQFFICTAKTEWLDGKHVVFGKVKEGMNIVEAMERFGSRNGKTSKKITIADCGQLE
Chain of CypA^V6I (P62937 whole entry V6I): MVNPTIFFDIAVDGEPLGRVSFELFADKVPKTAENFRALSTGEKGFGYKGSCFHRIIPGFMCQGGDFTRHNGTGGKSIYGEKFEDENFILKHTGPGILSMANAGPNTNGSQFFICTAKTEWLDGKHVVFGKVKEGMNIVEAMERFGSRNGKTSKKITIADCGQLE
Chain of CypA^V29A (P62937 whole entry V29A): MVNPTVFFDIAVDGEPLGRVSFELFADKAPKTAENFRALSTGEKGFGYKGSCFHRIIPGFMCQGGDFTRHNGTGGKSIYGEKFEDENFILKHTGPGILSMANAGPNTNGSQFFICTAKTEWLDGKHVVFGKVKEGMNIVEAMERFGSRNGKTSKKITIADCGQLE
Chain of CypA^V29T (P62937 whole entry V29T): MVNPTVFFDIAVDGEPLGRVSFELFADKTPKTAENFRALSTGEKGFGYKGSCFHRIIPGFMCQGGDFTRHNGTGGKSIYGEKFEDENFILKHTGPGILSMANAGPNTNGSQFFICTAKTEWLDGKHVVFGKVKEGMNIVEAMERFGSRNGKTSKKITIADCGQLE

B1: FGP peptide (peptide)
peptide: GSFGPDLRAGD
By Kd is commonly meant a measure of binding affinity in units of concentration. Read a low Kd as higher affinity. In the case of B1, the Kd in assay [1] is 76 µM; in [2], 37 µM; in assay [3], 57 µM; in assay [4] it was 73 µM; in assay [5], 38 µM; in [6] it was 82 µM. Moreover, the Kd in assay [7] turned out to be 86 µM; in assay [8], 65 µM; in assay [9] it was 48 µM; in [10] it was 69 µM.
